Experimental data from patent publication US20230322882A1 (NANJING NORMAL UNIVERSITY, published 2023).
Where two headings read alike, the source gives them in different places.

T1: CD25, CD122 and CD132 receptor molecules on HEK-Blue IL-2 cells (UniProt P01589 22-272; P14784 27-551; P31785 23-369, limits assumed)
T1 sequence (looked up) 1: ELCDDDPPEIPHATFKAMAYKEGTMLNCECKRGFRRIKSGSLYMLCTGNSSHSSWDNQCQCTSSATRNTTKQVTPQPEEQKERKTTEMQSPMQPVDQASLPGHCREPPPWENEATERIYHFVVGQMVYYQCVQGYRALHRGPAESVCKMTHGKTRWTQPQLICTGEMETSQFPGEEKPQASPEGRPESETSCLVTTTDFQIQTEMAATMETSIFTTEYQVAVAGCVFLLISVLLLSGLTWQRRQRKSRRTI
T1 sequence (looked up) 2: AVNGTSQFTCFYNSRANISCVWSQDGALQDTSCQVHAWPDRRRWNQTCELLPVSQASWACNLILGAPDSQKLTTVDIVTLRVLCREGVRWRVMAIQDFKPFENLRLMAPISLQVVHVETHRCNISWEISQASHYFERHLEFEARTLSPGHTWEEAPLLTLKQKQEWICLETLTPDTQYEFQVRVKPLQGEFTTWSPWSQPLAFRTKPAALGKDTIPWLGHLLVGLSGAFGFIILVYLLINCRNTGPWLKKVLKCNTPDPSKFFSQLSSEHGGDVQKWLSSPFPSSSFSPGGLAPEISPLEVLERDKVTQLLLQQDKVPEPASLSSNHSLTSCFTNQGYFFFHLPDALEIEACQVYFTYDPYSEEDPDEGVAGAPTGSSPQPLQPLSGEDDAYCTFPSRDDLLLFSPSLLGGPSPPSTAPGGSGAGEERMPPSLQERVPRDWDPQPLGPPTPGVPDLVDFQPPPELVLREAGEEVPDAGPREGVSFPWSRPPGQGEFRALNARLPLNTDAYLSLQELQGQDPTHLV
T1 sequence (looked up) 3: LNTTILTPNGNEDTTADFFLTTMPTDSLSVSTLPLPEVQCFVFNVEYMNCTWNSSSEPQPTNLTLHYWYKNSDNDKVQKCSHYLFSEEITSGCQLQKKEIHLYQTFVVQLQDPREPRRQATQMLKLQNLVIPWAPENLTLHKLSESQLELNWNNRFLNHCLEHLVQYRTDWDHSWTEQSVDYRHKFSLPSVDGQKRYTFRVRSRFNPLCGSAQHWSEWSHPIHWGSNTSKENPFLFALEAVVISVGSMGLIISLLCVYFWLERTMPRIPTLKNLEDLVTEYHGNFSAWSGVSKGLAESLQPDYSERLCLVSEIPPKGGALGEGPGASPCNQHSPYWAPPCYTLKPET

B1: Polypeptide dimer 1 (SEQ ID NO: 31 + SEQ ID NO: 32) (Fc fusion)
chain 1: HHHHHHTCPPCPAPEAAGGPSVFLFPPKPKDTLMISRTPEVTCVVVDVSHEDPEVKFNWYVDGVEVHNAKTKPREEQYNSTYRVVSVLTVLHQDWLNGKEYKCKVSNKALGAPIEKTISKAKGQPREPQVYTLPPCREEMTKNQVSLWCLVKGFYPSDIAVEWESNGQPENNYKTTPPVLDSDGSFFLYSKLTVDKSRWQQGNVFSCSVMHEALHNHYTQKSLSLSPGGGGGSGGGGSNFHLRPRDLISNINVIVLELKGSETTFMCEYADETATIVEFLNRWITFSQSIISTLTGSGPASSSTKKTQLQLEHLLLDLQMILNGINNYKNPKLTRMLTFKFYMPKKATELKHLQCLEEELKPLEEVLNLAQSK
chain 2: HTCPPCPAPEAAGGPSVFLFPPKPKDTLMISRTPEVTCVVVDVSHEDPEVKFNWYVDGVEVHNAKTKPREEQYNSTYRVVSVLTVLHQDWLNGKEYKCKVSNKALGAPIEKTISKAKGQPREPQVCTLPPSREEMTKNQVSLSCAVKGFYPSDIAVEWESNGQPENNYKTTPPVLDSDGSFFLVSKLTVDKSRWQQGNVFSCSVMHEALHNHYTQKSLSLSPGGGGGSGGGGSELCDDDPPEIPHATFKAMAYKEGTMLNCECKRGFRRIKSGSLYMLCTGNSSHSSWDNQCQCTSSATRNTTKQVTPQPEEQKERKTTEMQSPMQPVDQASLPGHCREPPPWENEATERIYHFVVGQMVYYQCVQGYRALHRGPAESVCKMTHGKTRWTQPQLICTGDYKDDDDK
B2: Polypeptide dimer 2 (SEQ ID NO: 33 + SEQ ID NO: 34) (Fc fusion)
chain 1: HHHHHHTCPPCPAPEAAGGPSVFLFPPKPKDTLMISRTPEVTCVVVDVSHEDPEVKFNWYVDGVEVHNAKTKPREEQYNSTYRVVSVLTVLHQDWLNGKEYKCKVSNKALGAPIEKTISKAKGQPREPQVCTLPPSREEMTKNQVSLSCAVKGFYPSDIAVEWESNGQPENNYKTTPPVLDSDGSFFLVSKLTVDKSRWQQGNVFSCSVMHEALHNHYTQKSLSLSPGGGGGSGGGGSNFHLRPRDLISNINVIVLELKGSETTFMCEYADETATIVEFLNRWITFSQSIISTLTGSGPASSSTKKTQLQLEHLLLDLQMILNGINNYKNPKLTRMLTFKFYMPKKATELKHLQCLEEELKPLEEVLNLAQSK
chain 2: HTCPPCPAPEAAGGPSVFLFPPKPKDTLMISRTPEVTCVVVDVSHEDPEVKFNWYVDGVEVHNAKTKPREEQYNSTYRVVSVLTVLHQDWLNGKEYKCKVSNKALGAPIEKTISKAKGQPREPQVYTLPPCREEMTKNQVSLWCLVKGFYPSDIAVEWESNGQPENNYKTTPPVLDSDGSFFLYSKLTVDKSRWQQGNVFSCSVMHEALHNHYTQKSLSLSPGGGGGSGGGGSELCDDDPPEIPHATFKAMAYKEGTMLNCECKRGFRRIKSGSLYMLCTGNSSHSSWDNQCQCTSSATRNTTKQVTPQPEEQKERKTTEMQSPMQPVDQASLPGHCREPPPWENEATERIYHFVVGQMVYYQCVQGYRALHRGPAESVCKMTHGKTRWTQPQLICTGDYKDDDDK

Key:
[1] = target: T1, CD25, CD122 and CD132 receptor …; experiment: cell-based or functional assay
[2] = target: T1, CD25, CD122 and CD132 receptor …; experiment: cell-based or functional assay; remark: listed apart in the source

| Binder | EC50 (pM), STAT5-regulated SEAP reporter in HEK-Blue IL-2 cells [1] [pM] | EC50 (pM), STAT5-regulated SEAP reporter in HEK-Blue IL-2 cells [2] [pM] |
| --- | --- | --- |
| B1 | 10.8 | – |
| B2 | – | 10.2 |
